± gives the standard deviation of the averaged measurements.
Test system: ATP
Experiment: switch fluorescence ratio, 500 uM ATP over buffer (Cy3 cluster intensity, sum of 5 cycles each) (fold (ratio)); higher = stronger signal-on switching upon ATP binding; sequences stand for … in TCGTCGGCAGCGTCAGATGTGTATAAGAGACAGTTTTTTTTTTTTTTTTTTTTTTTTT…TC
Conditions: aptamer strand: ATP DNA aptamer (quencher-CACCTGGGGGAGTATTGCGGAGGAAGG + anchor), 100 nM annealed; ATP concentration: 500 uM
Summary of the method: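 Switching-strand clusters labelled with Cy3 on a modified Illumina MiSeq flow-cell were annealed to 100 nM quencher-labelled ATP aptamer, imaged in selection buffer, and re-imaged after 15 min with 500 uM ATP at 22 °C. This was done over five cycles with NaOH stripping and re-annealing in between. The fluorescence ratio is summed target-cycle over summed buffer-cycle Cy3 intensity per cluster, averaged per switch-domain sequence, excluding clusters outside 100-1000 RFU.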
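Further: ATP exposure 15 min at 22 °C before imaging.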

Row | Sequence | switch fluorescence ratio
1 | GCCGTTGTGC | 0.984 ± 0.069
2 | GCCTATTTTG | 0.962 ± 0.07
3 | GCCTCTTAAG | 1 ± 0.032
4 | GCCTGAAAAA | 0.986 ± 0.033
5 | GCCTGCATTT | 1.02 ± 0.021
6 | GCCTGCGGGA | 1.1 ± 0.13
7 | GCCTGTGGGA | 1.01 ± 0.035
8 | GCCTTACATT | 1.01 ± 0.039
9 | GCCTTCAATA | 1.0946 ± 0.00028
10 | GCCTTCGAGG | 1.03 ± 0.012
11 | GCCTTCGGAA | 3.13 ± 0.065
12 | GCCTTGATCT | 0.996 ± 0.016
13 | GCCTTTAGCT | 0.943 ± 0.011
14 | GCGAAAGTTG | 1.014 ± 0.0032
15 | GCGAAATGTG | 1.03 ± 0.013
16 | GCGAAGGCTT | 1.017 ± 0.0095
17 | GCGAAGGGGG | 1.03 ± 0.067
18 | GCGACATCGT | 1.027 ± 0.0091
19 | GCGACCGTGT | 0.9908 ± 0.0014
20 | GCGACGAGGG | 1.033 ± 0.0017
21 | GCGACGGGAA | 1.34 ± 0.09
22 | GCGACGGGT | 1.02 ± 0.06
23 | GCGACTGCGG | 0.982 ± 0.021
24 | GCGAGAGGGA | 1.01 ± 0.013
25 | GCGAGATGCG | 0.972 ± 0.032

Row | Sequence | switch fluorescence ratio
26 | GCGAGGAATC | 1.0365 ± 0.00015
27 | GCGAGGGATT | 1.02 ± 0.032
28 | GCGAGGGGGG | 1.02 ± 0.034
29 | GCGAGTATGC | 1.03 ± 0.02
30 | GCGAGTGTCC | 0.99 ± 0.019
31 | GCGAGTGTGT | 0.984 ± 0.029
32 | GCGAGTTATG | 1.03 ± 0.031
33 | GCGATATAGT | 1.03 ± 0.074
34 | GCGATATATG | 0.9775 ± 0.0032
35 | GCGATCAGGT | 1.02 ± 0.017
36 | GCGATCCAAA | 1 ± 0.037
37 | GCGATCCTGT | 1.02 ± 0.015
38 | GCGATGCCTG | 0.973 ± 0.071
39 | GCGATGGATA | 0.96 ± 0.056
40 | GCGATGTGAC | 1.22 ± 0.059
41 | GCGATGTGGT | 1.01 ± 0.012
42 | GCGATTGAGG | 0.9891 ± 0.005
43 | GCGATTGGGT | 1.01 ± 0.043
44 | GCGCAGTCGG | 1.034 ± 0.0048
45 | GCGCATTGGT | 1.06 ± 0.068
46 | GCGCGCCGGG | 1.01 ± 0.027
47 | GCGCGCTAAG | 0.977 ± 0.035
48 | GCGCTAAGTT | 0.984 ± 0.015
49 | GCGCTACTAG | 1.02 ± 0.021
50 | GCGCTAGGCT | 1.01 ± 0.08

Row | Sequence | switch fluorescence ratio
51 | GCGCTATCTT | 1.06 ± 0.041
52 | GCGCTCGTCG | 1.07 ± 0.012
53 | GCGCTGACGT | 0.9932 ± 0.0052
54 | GCGCTTAGGT | 0.983 ± 0.077
55 | GCGCTTGAAT | 0.982 ± 0.018
56 | GCGCTTTTGG | 0.986 ± 0.048
57 | GCGGAAGACG | 1.35 ± 0.6
58 | GCGGACACGC | 1.02 ± 0.014
59 | GCGGAGCGTA | 1.06 ± 0.13
60 | GCGGAGTATT | 1.02 ± 0.012
61 | GCGGATGGTG | 1.07 ± 0.08
62 | GCGGATGTCT | 1 ± 0.017
63 | GCGGCATAAT | 1.02 ± 0.026
64 | GCGGCGTCAA | 1.064 ± 0.0067
65 | GCGGCTAGTC | 1.012 ± 0.0064
66 | GCGGCTGAAA | 1 ± 0.022
67 | GCGGCTGTGG | 0.9861 ± 0.008
68 | GCGGCTGTTA | 1.01 ± 0.013
69 | GCGGCTTCGG | 1.04 ± 0.032
70 | GCGGCTTGTG | 0.9988 ± 0.0089
71 | GCGGGAAACT | 1.05 ± 0.032
72 | GCGGGAATGG | 1.02 ± 0.0037
73 | GCGGGAGATA | 1.01 ± 0.037
74 | GCGGGCAATG | 1.052 ± 0.0089
75 | GCGGGCAGGC | 0.99818 ± 0.00079

Row | Sequence | switch fluorescence ratio
76 | GCGGGCGGCG | 0.974 ± 0.03
77 | GCGGGGA | 0.998 ± 0.015
78 | GCGGGGACTT | 0.984 ± 0.038
79 | GCGGGGCAAG | 1.06 ± 0.11
80 | GCGGGGGGGC | 1.01 ± 0.017
81 | GCGGGGGGTA | 1.01 ± 0.03
82 | GCGGGGGGTC | 1.06 ± 0.091
83 | GCGGGGGGTG | 1.01 ± 0.03
84 | GCGGGGGTCC | 1.17 ± 0.31
85 | GCGGGGTTGG | 1.01 ± 0.035
86 | GCGGGGTTTG | 1.01 ± 0.015
87 | GCGGGTATGT | 1.04 ± 0.023
88 | GCGGGTCACC | 0.992 ± 0.01
89 | GCGGGTCTGC | 0.963 ± 0.028
90 | GCGGTATATG | 1.01 ± 0.027
91 | GCGGTCCACG | 1.02 ± 0.022
92 | GCGGTGGATG | 1.03 ± 0.012
93 | GCGGTGGGGT | 1.01 ± 0.018
94 | GCGGTTTTGT | 0.998 ± 0.029
95 | GCGTAACTTC | 1.01 ± 0.044
96 | GCGTAAGGCC | 1.14 ± 0.21
97 | GCGTAAGTTC | 0.981 ± 0.011
98 | GCGTAATCTT | 0.988 ± 0.035
99 | GCGTATGGAC | 1.01 ± 0.02
100 | GCGTATTATT | 1.001 ± 0.0043

Row | Sequence | switch fluorescence ratio
101 | GCGTATTGCT | 0.993 ± 0.016
102 | GCGTCAACTG | 1.04 ± 0.023
103 | GCGTCAAGAT | 1.04 ± 0.042
104 | GCGTCAAGTG | 0.988 ± 0.026
105 | GCGTCGGGCA | 0.997 ± 0.027
106 | GCGTCGGGTG | 1.019 ± 0.008
107 | GCGTCTAAGG | 0.981 ± 0.021
108 | GCGTCTGCGC | 0.943 ± 0.085
109 | GCGTGAGGCG | 1.01 ± 0.02
110 | GCGTGAGGGG | 1.03 ± 0.05
111 | GCGTGATGCC | 1.03 ± 0.075
112 | GCGTGCCTCG | 1.02 ± 0.036
113 | GCGTGGTCAG | 0.97027 ± 0.00034
114 | GCGTGTGAGC | 1 ± 0.012
115 | GCGTTATATT | 1 ± 0.018
116 | GCGTTATGTG | 1.017 ± 0.01
117 | GCGTTATTTT | 1.012 ± 0.0076
118 | GCGTTCCGTA | 1.02 ± 0.039
119 | GCGTTGGGAC | 1.042 ± 0.0036
120 | GCGTTGTCTG | 0.982 ± 0.068
121 | GCGTTGTGGA | 1.04 ± 0.02
122 | GCGTTGTTCG | 0.99 ± 0.044
123 | GCGTTTAAGA | 1.04 ± 0.021
124 | GCGTTTAATG | 0.977 ± 0.047
125 | GCGTTTAATT | 1.02 ± 0.03

Row | Sequence | switch fluorescence ratio
126 | GCGTTTGTGC | 1.007 ± 0.01
127 | GCGTTTTATT | 0.976 ± 0.017
128 | GCGTTTTGGG | 0.979 ± 0.041
129 | GCTAAAACAG | 0.985 ± 0.026
130 | GCTAAAAGCT | 1.02 ± 0.011
131 | GCTAAAATAG | 1.11 ± 0.15
132 | GCTAAAGAAA | 0.974 ± 0.028
133 | GCTAACATTT | 0.974 ± 0.029
134 | GCTAACCGTA | 1.04 ± 0.023
135 | GCTAATTTTT | 0.996 ± 0.018
136 | GCTACAGGGG | 1.18 ± 0.25
137 | GCTACCATAT | 1.07 ± 0.015
138 | GCTACGATGT | 1.01 ± 0.049
139 | GCTACGGGGG | 1.02 ± 0.037
140 | GCTACGTGTT | 1.053 ± 0.007
141 | GCTACTGGCA | 1.003 ± 0.0077
142 | GCTACTTAAA | 1.03 ± 0.025
143 | GCTAGGCGGA | 1.0381 ± 0.0006
144 | GCTAGGGGAA | 0.985 ± 0.031
145 | GCTAGGGGTA | 0.987 ± 0.012
146 | GCTAGTATAA | 0.987 ± 0.027
147 | GCTAGTCTGA | 0.9954 ± 0.0019
148 | GCTATAGAGG | 0.9846 ± 0.0072
149 | GCTATAGCGT | 0.9958 ± 0.0063
150 | GCTATTCGAA | 1.01 ± 0.061

Row | Sequence | switch fluorescence ratio
151 | GCTATTCGAC | 1.16 ± 0.022
152 | GCTATTGAAA | 0.9922 ± 0.0018
153 | GCTATTGGAT | 1.01 ± 0.02
154 | GCTATTTACT | 1.06 ± 0.076
155 | GCTCAAGGAG | 0.9951 ± 0.0066
156 | GCTCACAGAA | 1.02 ± 0.019
157 | GCTCATGAAT | 1 ± 0.023
158 | GCTCGGGGGG | 0.987 ± 0.031
159 | GCTCGGGGTA | 1.02 ± 0.013
160 | GCTCGTAGTG | 1 ± 0.047
161 | GCTCGTAGTT | 1.01 ± 0.046
162 | GCTCTAATTG | 1.008 ± 0.0058
163 | GCTCTACTGG | 1.024 ± 0.0021
164 | GCTCTAGATC | 1.35 ± 0.07
165 | GCTCTAGTTT | 1.02 ± 0.027
166 | GCTCTATGGT | 1.006 ± 0.0078
167 | GCTCTATGTG | 1.01 ± 0.018
168 | GCTCTGACGG | 1.054 ± 0.0086
169 | GCTCTGGGGG | 1.03 ± 0.039
170 | GCTCTTCCCG | 1.319 ± 0.011
171 | GCTCTTTGCT | 0.988 ± 0.044
172 | GCTGAAAGGA | 0.999 ± 0.061
173 | GCTGACAGCG | 0.959 ± 0.017
174 | GCTGAGAATG | 0.999 ± 0.021
175 | GCTGAGTAAC | 0.99 ± 0.0017

Row | Sequence | switch fluorescence ratio
176 | GCTGATGATA | 0.967 ± 0.026
177 | GCTGATGTTC | 1.0082 ± 0.001
178 | GCTGCATATA | 1.066 ± 0.0095
179 | GCTGCGGTTT | 0.993 ± 0.013
180 | GCTGCTGGCC | 0.999 ± 0.044
181 | GCTGCTGTTG | 1.06 ± 0.049
182 | GCTGGATTGC | 0.916 ± 0.048
183 | GCTGGCACAC | 1.04 ± 0.021
184 | GCTGGCAGCC | 1.01 ± 0.069
185 | GCTGGCGTCA | 1 ± 0.05
186 | GCTGGGAGTC | 1 ± 0.029
187 | GCTGGGGCAA | 1.01 ± 0.037
188 | GCTGGGGCCC | 0.9977 ± 0.005
189 | GCTGGGGCGT | 0.9851 ± 0.005
190 | GCTGGGGCTT | 0.991 ± 0.014
191 | GCTGGGGGTG | 1.01 ± 0.012
192 | GCTGGGTCTT | 1.03 ± 0.023
193 | GCTGGGTGCT | 0.984 ± 0.015
194 | GCTGGTGCTC | 1.06 ± 0.05
195 | GCTGGTTGCT | 0.994 ± 0.039
196 | GCTGGTTGGC | 0.964 ± 0.016
197 | GCTGTAACGA | 0.998 ± 0.017
198 | GCTGTAAGGC | 1.01 ± 0.039
199 | GCTGTCAGCG | 1.02 ± 0.024
200 | GCTGTCTGGT | 1.0181 ± 0.00043
